Test: Isoelectric point of the pentapeptide
Format: physicochemical

Substance: Tyr-Gly-Phe-Gly-Gly (YGFGG; OGP(10-14); listed as Homo sapiens)
- isoelectric point: 5.52

Reference: patent US20200405610A1, “COSMETIC COMPOSITION” (Shaanxi Huikang Bio-Tech Co., Ltd., priority 2016, published 2020)
